Laboratory results reported in the supplement of paper PMC9170038.

system: MS2 coat protein; experiment: apparent KD of MS2 coat protein, switch ON state; designed switch direction (-1 OFF switch, 1 ON switch): -1; higher = weaker reporter binding; conditions: FMN input: 0 or 200 uM; Eterna round: R93 (includes R88 designs)
In short: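 Designed RNA switches, transcribed on-chip from Illumina sequencing clusters, were titrated with SNAP-549-labelled MS2 coat protein from 0.7 or 1.5 nM to 3 µM in twofold steps. The solution was 100 mM Tris-HCl pH 7.5, 80 mM KCl, 4 mM MgCl2, with constant ligand or without it. Apparent KD is the median over each design's normalised cluster binding-curve fits.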

Sequence | apparent KD of MS2 coat protein [nM]
AACUGACAUGAGGAUCACCCAUGUCAGGAUAUGACUUGAAAAAAAAAAAAAAAACAUGUCAGAAGGGACAUGGG [Design 55 :P Sub-opt HB] | 26.8
GGAGGGCAAGGAUAUACAUGAGGAUCACCCAUGUGAGAGAAAAAAGUGAGAAAGAAAAGUAGAAGGUGCUUUCG [salish99-ex3-130] | 38.8
AGGUGGUCAGGAUAUGCGUGAAGAAUAAAACAAAUAACAACGCAGAAGGGACAUGAGGAUCACCCAUGUCACCA [May 52] | 20.7
CCUAUGUCAGGAUAUCAGUAGUAAAAAAAAAAAAUUACUACUGAGAAGGGACAUGAGGAUCACCCAUGUCCCUU [EX4 309: Super Stable 9] | 15.3
AAAAAACAUGAGGAUCACCCAUGUAAGGAUAUGCUGAAAAACACGGAAAAACGUGACAGCAGAAGGUACAAAAG [Mat - Exclusion 1 - Eli mod - D93] | 11.8
GAAAAACAUGAGGAUCACCCAUGUAAGGAUAUGCUGAAAAACACGGAAAAAACGUGCAGCAGAAGGUACAAAAG [Mat - Exclusion 1 - Eli mod - D91] | 16.7
AAAACGGCAGGAUAUACGAUUUGGAACUAGACCGAGGAACCACAUGAGGAUCACCCAUGUAGAAGGGCCAAAAA [Ex2 Malc#16] | 17.2
AAGAAGUGAGGAUAUACGCGAACAAAAAAAAAAAAGAAAGCGUAGAAGGCACAUGAGGAUCACCCAUGUCAAAA [Alfred Victor Espinas] | 30.1
AGUUGGCGAGGAUAUACAUGAGGAUCACCCAUGUGAAAUCGAGAAAAAAUAGGGAAAAGUAGAAGGCGCUGACA [Ruby 62] | 22.5
AAGAAGUGAGGAUAUACAUGAGGAUCACCCAUGUAAAAGAAAGAAAGGGAAAAGAAAAGUAGAAGGCACAAGAA [Usermaatre-setpenre-meryamun Ramesses VII] | 36.5
AAUAAACAUGAGGAUCACCCAUGUAAGGAUAUCGAAAAAAAAAUAAACAAAAAAAAAACGAGAAGGUACAAAAA [Exclusion 1 design 2] | 24.1
AAAAGGCGAGGAUAUACAUGAGGAUCACCCAUGUAAGUAAGCCUGGCUGAAACUAAAUGUAGAAGGCGCAAAAA [Mat - Exclusion 3 - Neo mod - D73] | 18.2
AAUAAACAUGAGGAUCACCCAUGUCAGGAUAUGCAUCUAACAUAAUAACAUAAAUACAGCAGAAGGGACUAAUA [JR_Exc001_Sub601] | 30.3
ACUAAACGAGGAUAUACUGACAAACCUCAAACAUACAUCAAACAUGAGGAUCACCCAUGUAGAAGGCGUAAACU [JR_Exc002_Sub401] | 37.6
ACCUAGUCAGGAUAUACAAACAUGUCAAAAGACGUGAAAAAACAUGAGGAUCACCCAUGUAGAAGGGACUAGGA [Mat - Exclusion 2 - JL mod - D22] | 20.5
GAAAAGCAAGGAUAUACAUGAGGAUCACCCAUGUAACCUGAAAGCAUGAUCGGUGACAGUAGAAGGUGCGAAAU [Tixegerice] | 22.3
AAGAAGUGAGGAUAUGUCUGUGCGAAAAAAAAAAAGUGCAGACAGAAGGCACAUGAGGAUCACCCAUGUGAAAA [Florian 65% 4] | 21.9
AAAAAACAUGAGGAUCACCCAUGUCAGGAUAUCUGUAUUCAAUCCUCGGAUUGAAUACAGAGAAGGGACAUGAA [Ex1: 603] | 41.3
AUCGAUCGAGGAUAUACAUGAGGAUCACCCAUGUAAAGCAGAAGAAAGGCCUCAGGAUGUAGAAGGCGACGCAA [JR_Exc003_Sub404] | 17.1
AGUCUGAGAGGAUAUACAUAGGAAAAAAAAGUCAGAUCCCUACAUGAGGAUCACCCAUGUAGAAGGCUCUGACA [Ex2 Design 148: Sub-opt 12] | 13.9
AAUCCACAUGAGGAUCACCCAUGUGAGGAUAUCGUGCAGAAAAAAAAAAAAAACUGCACGAGAAGGCACAUGGA | 35.1
AAAACUGGAGGAUAUACGAACAUGUCGAAAGACGUGAAGGGACAUGAGGAUCACCCAUGUAGAAGGCUAGAAAA [Mat - Exclusion 2 - JL mod - D72] | 42.5

Sequence | apparent KD of MS2 coat protein [nM]
ACAAAUGUAGGAUAUACAUGAGGAUCACCCAUGUGGCACAAACAGCAAACAAGACAAAGUAGAAGGACAACGAC [JR_Exc003-Sub901] | 24.9
AUAAAGUGAGGAUAUCGAAGACUGUCGAAAAGACAGUCGAACGAGAAGGCACAUGAGGAUCACCCAUGUGAGGG [Mat - Exaclusion 4 - Eli mod - D68] | 79.7
CUCAUGUAAGGAUAUAUAUGAAAUGAAGUGAAAGAAAAGAAAUAGAAGGUACAUGAGGAUCACCCAUGUUAGAA [EteRNA is fun!] | 59.2
AGUUGGCGAGGAUAUACAUGAGGAUCACCCAUGUGAAAUAAUGAAAAAGUAGGGAAAAGUAGAAGGCGCUGACA [73%, Moding Norbert Elias, 20] | 37.7
AACAUGUCAGGAUAUGUGUAAAGAAUAAAAGAAAUAACAACACAGAAGGGACAUGAGGAUCACCCAUGUCAACA [May 32] | 26.1
AAGAAACAUGAGGAUCACCCAUGUCAGGAUAUCCAAAAGAAAAGAAAAGAAAGAAGAAGGAGAAGGGACAAAGG [Neferkamin Anu] | 31
AAGAAACAUGAGGAUCACCCAUGUGAGGAUAUAGAAGAAAGAAAGAAAGAAAGAAGAACUAGAAGGCACAAAGG [Aemilius Rectus] | 33.1
AAGAAACAUGAGGAUCACCCAUGUGAGGAUAUGUAAAAGAAAAGAAAAGAAAGAAGAAACAGAAGGCACAAAGG [Neferkare VII] | 43.1
GAAAAACAUGAGGAUCACCCAUGUAAGGAUAUGCUAAAAAACACGGAAAACGUGAAUAGCAGAAGGUACAAAAG [Mat - Exclusion 1 - Eli mod - D85] | 25
AAAACACAUGAGGAUCACCCAUGUCAGGAUAUACGAGAAAGAAAAGAAAAGAAAAGAAGUAGAAGGGACUAGAA [Exclusion1 Malc#3] | 15.7
AAAAAGCAAGGAUAUACAUGAGGAUCACCCAUGUGAAAAAAAACAAUAAGAAGAACAAGUAGAAGGUGCAAAAA [Mod of Ex3 Tesla 1 - Jieux - Exclusion 3] | 19.5
AAGAACUGAGGAUAUACAAAAUAAAAGAAAAGAAAGAAAGAACAUGAGGAUCACCCAUGUAGAAGGCGGAAGAA [Wahibre Ibiau] | 29.4
CUCUUGUCAGGAUAUCUAAGAAAAGAAGAGAAAGAAAAGAAAGAGAAGGGACAUGAGGAUCACCCAUGUAAGAA [EteRNA is fun!] | 59.3
AUCAUCCUAGGAUAUACAUGGAUAUACAUUCAUGUGGACCUACAUGAGGAUCACCCAUGUAGAAGGAGGAUGAA [Mat - Same state - Mayanna Mod - D139] | 36.7
GAAAAGUGAGGAUAUUCGGAUAGGAAAACGAAAACCUAUCCGAAGAAGGCACAUGAGGAUCACCCAUGUAAAAG [Mat - Exaclusion 4 - Eli mod - D36] | 41.2
AUCUUGUCAGGAUAUCGUAUAAUAUGGAAAACAUAGAGAUACGAGAAGGGACAUGAGGAUCACCCAUGUAAAAC [May 97] | 41.7
AAAGGACGAGGAUAUACAUGAGGAUCACCCAUGUAAAAAACAUAAUAAAAGAACUUAUGUAGAAGGCGUCCAAA [Meechl Ex3 2 R1 - Copy of Meechl Ex3 2 from Round 1] | 53.8
AAAUAGUUAGGAUAUACAUGAGGAUCACCCAUGUGGACUUAUGGCGAAUAAUUUAGUGGUAGAAGGGACUAAAA [EX2 Malc#28] | 62.9
ACUAGUACAGGAUAUACAUGAGGAUCACCCAUGUGAGAAUUAAGUGGCGUACCACAAAGUAGAAGGGUACUAGA [Mat - Exclusion 3 - JL mod - D14] | 34.3
AACUGACAUGAGGAUCACCCAUGUCAGGAUAUGACUUCGAAAAAAAAAAAAAACGAUGUCAGAAGGGACAUGGG [Design 69: Sub-opt OB] | 17.6
AAAAAGUCAGGAUAUGCUUAUAAUAAGAAAAUUAGAGAUAUGCAGAAGGGACAUGAGGAUCACCCAUGUAAAAA [Ex 4.1] | 53.2
AGAAUACAUGAGGAUCACCCAUGUGAGGAUAUCCAAAGAAAAAGAAAAGAAAAGAAAAGGAGAAGGCACAAAAG [EX 1 May 13] | 78.7
